The values that follow are results of earlier work, collected in PMC3496018.

The Kd is a measure of binding affinity in units of concentration.

Data set [1] has as its target LRP6 (Homo sapiens) (UniProt O75581).
Data set [2] deals with Syndecan-4 (Homo sapiens) (UniProt P31431).
Chain of UniProt P31431 (P31431 19-145): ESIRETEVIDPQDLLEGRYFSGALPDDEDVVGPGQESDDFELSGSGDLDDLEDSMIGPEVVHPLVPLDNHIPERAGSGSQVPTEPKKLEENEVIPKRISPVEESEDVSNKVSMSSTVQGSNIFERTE

Chain of UniProt O75581 (O75581 20-1370): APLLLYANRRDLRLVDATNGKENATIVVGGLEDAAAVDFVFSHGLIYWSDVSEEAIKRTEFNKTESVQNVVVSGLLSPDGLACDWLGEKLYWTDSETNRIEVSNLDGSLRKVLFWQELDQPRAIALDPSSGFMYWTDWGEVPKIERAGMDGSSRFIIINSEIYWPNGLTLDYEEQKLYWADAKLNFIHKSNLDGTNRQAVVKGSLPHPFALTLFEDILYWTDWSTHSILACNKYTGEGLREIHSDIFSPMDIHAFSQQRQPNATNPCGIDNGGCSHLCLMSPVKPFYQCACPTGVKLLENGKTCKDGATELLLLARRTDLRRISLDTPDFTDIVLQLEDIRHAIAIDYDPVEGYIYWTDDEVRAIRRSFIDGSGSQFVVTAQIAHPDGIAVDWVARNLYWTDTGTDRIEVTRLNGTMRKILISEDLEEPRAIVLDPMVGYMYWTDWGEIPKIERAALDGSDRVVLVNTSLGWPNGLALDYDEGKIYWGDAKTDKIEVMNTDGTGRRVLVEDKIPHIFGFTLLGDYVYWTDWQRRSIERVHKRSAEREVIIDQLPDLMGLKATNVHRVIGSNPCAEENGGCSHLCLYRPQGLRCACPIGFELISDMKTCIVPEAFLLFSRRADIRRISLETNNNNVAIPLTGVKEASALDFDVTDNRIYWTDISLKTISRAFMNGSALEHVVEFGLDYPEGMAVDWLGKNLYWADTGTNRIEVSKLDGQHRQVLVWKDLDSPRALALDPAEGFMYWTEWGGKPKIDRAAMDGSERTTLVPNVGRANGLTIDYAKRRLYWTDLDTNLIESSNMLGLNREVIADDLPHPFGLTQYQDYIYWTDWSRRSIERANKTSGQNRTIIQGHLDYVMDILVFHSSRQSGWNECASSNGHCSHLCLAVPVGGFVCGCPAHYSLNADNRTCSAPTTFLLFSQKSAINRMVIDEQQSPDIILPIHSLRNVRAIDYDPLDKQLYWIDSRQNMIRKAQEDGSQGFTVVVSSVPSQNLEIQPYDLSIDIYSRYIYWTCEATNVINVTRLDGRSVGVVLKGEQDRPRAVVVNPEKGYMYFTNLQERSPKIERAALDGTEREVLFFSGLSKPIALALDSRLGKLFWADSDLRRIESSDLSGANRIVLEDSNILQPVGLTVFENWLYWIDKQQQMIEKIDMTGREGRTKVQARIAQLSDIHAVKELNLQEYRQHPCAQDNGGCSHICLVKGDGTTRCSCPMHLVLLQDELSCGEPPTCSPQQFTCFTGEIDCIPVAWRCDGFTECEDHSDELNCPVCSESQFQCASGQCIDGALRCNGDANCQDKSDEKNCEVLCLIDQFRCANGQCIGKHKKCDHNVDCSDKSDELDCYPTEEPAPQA

In the case of RSPO1 (from UniProt Q2MKA7), the Kd in data set [1] is 1.2 nM.
RSPO3 (from UniProt Q9BXY4): the dissociation constant Kd in data set [2] was 0.88 nM.
